Results taken from patent US6677130.

Target: T1, GST-ATF2 substrate, P15336
T1 chain: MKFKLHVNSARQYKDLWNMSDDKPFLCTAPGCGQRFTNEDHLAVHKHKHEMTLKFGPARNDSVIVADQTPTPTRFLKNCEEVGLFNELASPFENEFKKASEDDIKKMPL

B1: epitope-tagged p38-2 (3xHA-p38-2) (protein)
chain: MSGPRAGFYRQELNKTVWEVPQRLQGLRPVGSGAYGSVCSAYDARLRQKVAVKKLSRPFQSLIHARRTYRELRLLKHLKHENVIGLLDVFTPATSLEDFSEVYLVTTLMGADLNNIVKCQALSDEHVQFLVYQLLRGLKYIHSAGIIHRDLKPSNVAVNEDCELRILDFGLARQADEEMTGYVATRWYRAPEIMLNWMHYNQTVDIWSVGCIMAELLQGKALFPGSDYIDQLKRIMEVVGTPSPEVLAKISSEHARTYIQSLPPMPQKDLSSIFRGANPLAIDLLGRMLVLDSDQRVSAAEALAHAYFSQYHDPEDEPEAEPYDEGVEAKERTLEEWKELTYQEVLSFKPPEPPKPPGSLEIEQ
  phosphorylation of GST-ATF2 by immunoprecipitated HA-p38-2 ([gamma-32P]ATP, SDS-PAGE, autoradiography): the inducible phosphorylation of ATF2 depends on a kinase cascade comprised of MEK6 and p38-2
